Values belong to the binder of their own block, whether it stands above or below them.
B7: human IRF5 tagged with one-strep tag (N-terminus) and HA tag (C-terminus) (other)
chain: MNQSIPVAPTPPRRVRLKPWLVAQVNSCQYPGLQWVNGEKKLFCIPWRHATRHGPSQDGDNTIFKAWAKETGKYTEGVDEADPAKWKANLRCALNKSRDFRLIYDGPRDMPPQPYKIYEVCSNGPAPTDSQPPEDYSFGAGEEEEEEEELQRMLPSLSLTEDVKWPPTLQPPTLQPPVVLGPPAPDPSPLAPPPGNPAGFRELLSEVLEPGPLPASLPPAGEQLLPDLLISPHMLPLTDLEIKFQYRGRPPRALTISNPHGCRLFYSQLEATQEQVELFGPISLEQVRFPSPEDIPSDKQRFYTNQLLDVLDRGLILQLQGQDLYAIRLCQCKVFWSGPCASAHDSCPNPIQREVKTKLFSLEHFLNELILFQKGQTNTPPPFEIFFCFGEEWPDRKPREKKLITVQVVPVAARLLLEMFSGELSWSADSIRLQISNPDLKDRMVEQFKELHHIWQSQQRLQPVAQAPPGAGLGVGQGPWPMHPAGMQ
notes: Expressed in HEK-293-TLR4-CD14/Md2 cells and purified on Strep-Tactin after formaldehyde cross-linking; also called onestrep-IRF5-HA; IRF5 with an N-terminal one-strep tag and a C-terminal HA tag; not shown: N-terminal one-strep tag; C-terminal HA tag

Assays:
IRF5 DBD (aa 1-131) [1] = target: T1, IRF5 DBD (aa 1-131) (Homo sapiens, UniProt Q13568 SEQ:1-131); assay: EMSA; 50 ng IRF5 DBD; settings: tags: expressed from pET21d in bacteria; label: 32P (dCTP fill-in); 5' agct overhangs
Method: (§1) (A) Recombinant purified IRF5-DBD was used in an EMSA with radioactive probe corresponding to the selected ISRE and κB sites. PRDI-III (IFN-˜ promoter) was used as a positive control.
(§2) Binding reactions with 50 ng of bacterially expressed and purified IRF5 DBD and EMSA gel separation were performed as previously described⁵.

IRF5 DBD (aa 1-131) [2] = target: T1, IRF5 DBD (aa 1-131); assay: EMSA; non-consensus ISRE; settings: tags: expressed from pET21d in bacteria; label: 32P (dCTP fill-in); 5' agct overhangs
Method: as §1, §2

[3] = target: B7; assay: Strep-Tactin pull-down of one-strep-IRF5-HA from formaldehyde-cross-linked HEK-293 cells, immunoblot
Method: (§3) HEK-293-TLR4-CD14/Md2 cells were transfected with onestrep-IRF5-HA construct or corresponding empty vector. 24 hrs post transfection cells were fixed with 1% formaldehyde for 10 minutes at room temperature prior to high salt lysis and affinity purification on Strep-Tactin MacroPrep sepharose (IBA). The eluates were de-crosslinked by incubating at 65° C. overnight prior to separation by SDS-PAGE. Exogenous IRF5 and endogenous RelA were detected by immunoblotting with anti-HA-HRP (12013819001, Roche) and anti-RelA (sc-372, Santa-Cruz, US). Alternatively, cells were transfected with RelA-FLAG or BAP-FLAG control protein. 24 hrs post transfection cells were lysed and affinity purified with anti-FLAG M2 sepharose beads (Sigma, UK). Exogenous RelA and endogenous IRF5 were detected by immunoblotting with anti-FLAG-HRP (A8592, Sigma, UK) and anti-IRF5 (Abcam, UK). Interaction of endogenous RelA and IRF5 was detected by overnight incubation of the cell lysates with goat anti-IRF5 antibody (ab2932, Abcam, UK) or no antibody control prior to precipitation with protein G beads. IRF5 was detected by immunoblotting with mouse anti-IRF5 antibody (sc-56714, Santa-Cruz, USA) while RelA—by immunoblotting with anti-RelA. Triton X-100 extracted nuclei and DNase I digestion of chromatin was performed as described previously¹⁷.
(§4) IRF5 with an N-terminal one-strep tag and a C-terminal HA tag was expressed in HEK-293 cells. […] To determine whether this interaction was specific, we immunoblotted for other NE-κB family members: Rel-B, c-Rel, p50 and p52, or a control protein tubulin. […] Furthermore we conducted a complementary experiment, in which human RelA containing C-terminal FLAG tag was expressed in HEK-293 cells and immunoprecipitated in the absence of a cross-linking agents on anti-FLAG sepharose. Specific interactions between ectopically expressed RelA and endogenous IRF5 were observed. No interaction was detected between a control FLAG-tagged bacterial alkaline phosphatase (BAP) and IRF5 (FIG. 24B, compare lanes 1 and 2).

[4] = target: T2, human RelA containing C-terminal FLAG tag (human, UniProt Q04206 1-551); assay: One-Strep affinity purification from co-transfected HEK293-TLR4-CD14/Md2 cells, Western blot
T2 construct: Expressed in HEK-293 cells; also called RelA-FLAG; Flag-tagged RelA; not shown: C-terminal FLAG tag

Rel-B = target: T3, Rel-B (UniProt Q01201 1-579); assay: Strep-Tactin pull-down of one-strep-IRF5-HA from formaldehyde-cross-linked HEK-293 cells, immunoblot
T3 construct: Endogenous protein in HEK-293 lysate, probed by immunoblot
T3 sequence (looked up): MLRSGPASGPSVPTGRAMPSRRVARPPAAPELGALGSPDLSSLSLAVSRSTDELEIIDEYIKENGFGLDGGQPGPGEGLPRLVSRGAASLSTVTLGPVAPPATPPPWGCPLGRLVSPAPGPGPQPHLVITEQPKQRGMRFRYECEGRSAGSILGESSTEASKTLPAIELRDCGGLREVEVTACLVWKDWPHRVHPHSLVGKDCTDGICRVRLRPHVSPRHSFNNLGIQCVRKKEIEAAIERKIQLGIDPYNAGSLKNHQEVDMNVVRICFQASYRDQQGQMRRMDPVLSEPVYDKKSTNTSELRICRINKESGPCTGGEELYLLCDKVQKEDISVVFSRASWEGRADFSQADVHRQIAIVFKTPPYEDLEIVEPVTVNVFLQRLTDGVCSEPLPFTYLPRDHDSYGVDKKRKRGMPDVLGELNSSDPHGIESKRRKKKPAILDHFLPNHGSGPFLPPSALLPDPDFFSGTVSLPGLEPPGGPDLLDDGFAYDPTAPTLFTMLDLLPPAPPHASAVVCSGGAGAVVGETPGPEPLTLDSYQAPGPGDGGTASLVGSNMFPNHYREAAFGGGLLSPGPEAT
Method: as §3, §4

c-Rel = target: T4, c-Rel (UniProt Q04864 2-619, limits assumed); assay: as above
T4 construct: Endogenous protein in HEK-293 lysate, probed by immunoblot
T4 sequence (looked up): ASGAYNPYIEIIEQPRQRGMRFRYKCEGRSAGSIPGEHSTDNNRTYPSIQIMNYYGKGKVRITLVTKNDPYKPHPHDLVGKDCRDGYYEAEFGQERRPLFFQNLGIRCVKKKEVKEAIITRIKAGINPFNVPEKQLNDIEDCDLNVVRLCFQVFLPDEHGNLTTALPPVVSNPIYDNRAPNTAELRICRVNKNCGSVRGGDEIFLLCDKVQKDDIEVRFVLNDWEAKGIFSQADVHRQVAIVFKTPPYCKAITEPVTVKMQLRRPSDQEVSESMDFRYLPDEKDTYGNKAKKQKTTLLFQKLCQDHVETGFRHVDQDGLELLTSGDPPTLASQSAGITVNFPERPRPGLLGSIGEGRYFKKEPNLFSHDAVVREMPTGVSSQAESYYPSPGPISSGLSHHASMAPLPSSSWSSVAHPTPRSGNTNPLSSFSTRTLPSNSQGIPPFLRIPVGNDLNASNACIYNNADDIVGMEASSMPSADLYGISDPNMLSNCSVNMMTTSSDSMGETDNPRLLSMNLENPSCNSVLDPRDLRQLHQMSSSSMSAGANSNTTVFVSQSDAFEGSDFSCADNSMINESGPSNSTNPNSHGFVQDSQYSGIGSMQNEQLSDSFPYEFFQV
Method: as §3, §4

IRF5 DBD (aa 1-131) [5] = target: T1, IRF5 DBD (aa 1-131); assay: EMSA; 50 ng IRF5 DBD; ISRE 1/2 said to interact in vitro; settings: tags: expressed from pET21d in bacteria; label: 32P (dCTP fill-in); 5' agct overhangs
Method: as §1, §2

T2 sequence (Q04206 other isoform, or with tags, fused parts or gaps): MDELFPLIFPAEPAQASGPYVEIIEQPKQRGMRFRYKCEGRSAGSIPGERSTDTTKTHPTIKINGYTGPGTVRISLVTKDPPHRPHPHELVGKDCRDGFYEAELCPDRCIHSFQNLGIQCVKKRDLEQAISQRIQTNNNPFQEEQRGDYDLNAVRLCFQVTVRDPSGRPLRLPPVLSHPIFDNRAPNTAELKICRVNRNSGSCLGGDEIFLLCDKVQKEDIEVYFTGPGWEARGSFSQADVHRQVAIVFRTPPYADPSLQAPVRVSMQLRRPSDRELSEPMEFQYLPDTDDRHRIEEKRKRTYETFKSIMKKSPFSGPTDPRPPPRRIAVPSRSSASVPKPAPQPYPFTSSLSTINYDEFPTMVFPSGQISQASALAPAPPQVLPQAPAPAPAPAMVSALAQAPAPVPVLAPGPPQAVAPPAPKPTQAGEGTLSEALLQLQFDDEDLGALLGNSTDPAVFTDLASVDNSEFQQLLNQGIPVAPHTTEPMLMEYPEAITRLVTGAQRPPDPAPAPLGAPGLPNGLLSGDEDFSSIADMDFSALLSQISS

B1: TNF kB4b (dsDNA)
DNA 1: AGCTCTTGCTGGGAAAATCCTGCAG
DNA 2: AGCTGCTGCAGGATTTTCCCAGCAAG
- binding result (IRF5 DBD (aa 1-131) [1]): no binding

B2: TNF 'ISRE'17 (dsDNA)
DNA 1: AGCTACATAAACAAAGCCCAACAGAATATTCC
DNA 2: AGCTGGAATATTCTGTTGGGCTTTGTTTATGT
- binding result (IRF5 DBD (aa 1-131) [2]): no binding

- binding result [3]: no binding
B3: p50 (other, UniProt P19838 1-433, looked up)
chain: MAEDDPYLGRPEQMFHLDPSLTHTIFNPEVFQPQMALPTDGPYLQILEQPKQRGFRFRYVCEGPSHGGLPGASSEKNKKSYPQVKICNYVGPAKVIVQLVTNGKNIHLHAHSLVGKHCEDGICTVTAGPKDMVVGFANLGILHVTKKKVFETLEARMTEACIRGYNPGLLVHPDLAYLQAEGGGDRQLGDREKELIRQAALQQTKEMDLSVVRLMFTAFLPDSTGSFTRRLEPVVSDAIYDSKAPNASNLKIVRMDRTAGCVTGGEEIYLLCDKVQKDDIQIRFYEEEENGGVWEGFGDFSPTDVHRQFAIVFKTPKYKDINITKPASVFVQLRRKSDLETSEPKPFLYYPEIKDKEEVQRKRQKLMPNFSDSFGGGSGAGAGGGGMFGSGGGGGGTGSTGPGYSFPHYGFPTYGGITFHPGTTKSNAGMKHG
notes: Endogenous protein in HEK-293 lysate, probed by immunoblot; also called NF-kB p50

- binding result [3]: no binding
B4: p52 (other, UniProt Q00653 1-454, looked up)
chain: MESCYNPGLDGIIEYDDFKLNSSIVEPKEPAPETADGPYLVIVEQPKQRGFRFRYGCEGPSHGGLPGASSEKGRKTYPTVKICNYEGPAKIEVDLVTHSDPPRAHAHSLVGKQCSELGICAVSVGPKDMTAQFNNLGVLHVTKKNMMGTMIQKLQRQRLRSRPQGLTEAEQRELEQEAKELKKVMDLSIVRLRFSAFLRASDGSFSLPLKPVISQPIHDSKSPGASNLKISRMDKTAGSVRGGDEVYLLCDKVQKDDIEVRFYEDDENGWQAFGDFSPTDVHKQYAIVFRTPPYHKMKIERPVTVFLQLKRKRGGDVSDSKQFTYYPLVEDKEEVQRKRRKALPTFSQPFGGGSHMGGGSGGAAGGYGGAGGGGSLGFFPSSLAYSPYQSGAGPMGCYPGGGGGAQMAATVPSRDSGEEAAEPSAPSRTPQCEPQAPEMLQRAREYNARLFGLA
notes: Endogenous protein in HEK-293 lysate, probed by immunoblot; also called NF-kB p52

B5: TNF kB4a (dsDNA)
DNA 1: AGCTAACTCTGGGAATTCCAATCCTT
DNA 2: AGCTAAGGATTGGAATTCCCAGAGTT
- binding result (IRF5 DBD (aa 1-131) [1]): no binding

- binding result [4]: binds
B6: One-Strep-IRF5 fusion protein (other)
chain: MNQSIPVAPTPPRRVRLKPWLVAQVNSCQYPGLQWVNGEKKLFCIPWRHATRHGPSQDGDNTIFKAWAKETGKYTEGVDEADPAKWKANLRCALNKSRDFRLIYDGPRDMPPQPYKIYEVCSNGPAPTDSQPPEDYSFGAGEEEEEEEELQRMLPSLSLTEDVKWPPTLQPPTLQPPVVLGPPAPDPSPLAPPPGNPAGFRELLSEVLEPGPLPASLPPAGEQLLPDLLISPHMLPLTDLEIKFQYRGRPPRALTISNPHGCRLFYSQLEATQEQVELFGPISLEQVRFPSPEDIPSDKQRFYTNQLLDVLDRGLILQLQGQDLYAIRLCQCKVFWSGPCASAHDSCPNPIQREVKTKLFSLEHFLNELILFQKGQTNTPPPFEIFFCFGEEWPDRKPREKKLITVQVVPVAARLLLEMFSGELSWSADSIRLQISNPDLKDRMVEQFKELHHIWQSQQRLQPVAQAPPGAGLGVGQGPWPMHPAGMQ
notes: also called full-length IRF5 (One-Strep bait); not shown: One-Strep tag

Binder: B7
- binding result (Rel-B): no binding
- binding result (c-Rel): no binding

B8: TNF 'ISRE'16 (dsDNA)
DNA 1: AGCTTTTGCTTAGAAAAGAAACATGGTCTC
DNA 2: AGCTGAGACCATGTTTCTTTTCTAAGCAAA
- binding result (IRF5 DBD (aa 1-131) [2]): no binding

B9: TNF ISRE1 (dsDNA)
DNA 1: AGCTGAAGCCAAGACTGAAACCAGCATTA
DNA 2: AGCTTAATGCTGGTTTCAGTCTTGGCTTC
- binding result (IRF5 DBD (aa 1-131) [5]): binds
